The source of these data is US6994974B1, “Intracellular amyloid-beta binding (ERAB) polypeptide-related assays” (The trustees of Columbia University in the city of New York, priority 1997, dated 2006).

Assay [1] addresses T1, TrcHis-ERAB polypeptide (Homo sapiens, UniProt Q99714).
T1 construct: made in house; host or cells: E. coli
T1 sequence (Q99714 1-261): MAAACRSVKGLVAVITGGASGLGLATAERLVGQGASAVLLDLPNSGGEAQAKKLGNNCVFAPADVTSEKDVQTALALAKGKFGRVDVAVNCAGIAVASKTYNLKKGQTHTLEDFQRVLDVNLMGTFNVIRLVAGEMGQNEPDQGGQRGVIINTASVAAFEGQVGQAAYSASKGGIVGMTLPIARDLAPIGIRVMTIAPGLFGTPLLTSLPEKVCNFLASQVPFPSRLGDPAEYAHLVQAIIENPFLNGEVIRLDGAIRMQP
Briefly: Binding of ^125I-amyloid-beta peptide (1–40) to TrcHis-ERAB polypeptide adsorbed to microtiter wells. Particulars: unlabelled competitor at 10 μM; tracer 100 nM; FIG. 2E. The procedure: FIGS. 2A, 2B, 2C, 2D, 2E, 2F, and 2G. […] FIG. 2A. SDS-PAGE (12%; reduced) followed by immunoblotting of TrcHis-ERAB polypeptide (FIG. 2A, lane 1; 2 μg) and TrcHis-chloramphenicol acetyltransferase (CAT; FIG. 2A, lane 2; 2 μg) fusion proteins using anti-ERAB polypeptide IgG (3 μg/ml). […] FIGS. 2B and 2C. […] Binding was analyzed by nonlinear least squares analysis using the method of Klotz and Hunston (60). FIG. 2E. […] FIGS. 2F and 2G. […] 0 indicates wells coated with albumin alone. […] Control TrcHis-CAT construct (Invitrogen) was also used to transform E. coli and the fusion protein was purified as above. Antibody to ERAB polypeptide was prepared by immunizing rabbits with ERAB polypeptide-derived peptides, corresponding to residues 100–116 and 133–147, conjugated to keyhole limpet hemocyanin. […] (for ERAB polypeptide) or overnight at 4° C. […] Unbound radioactivity was removed by washing wells five times with ice cold phosphate-buffered saline containing Tween 20 (0.05%), and bound radioactivity was eluted by incubation with Nonidet P-40 (1%).

The subject of assay [2] is ERAB polypeptide in neuroblastoma cells. Briefly: Cellular distribution of ERAB polypeptide in neuroblastoma cells by immunofluorescence. Format: cell-based, human. Particulars: peptide added to neuroblastoma cells; amyloid-beta peptide (1–42) 1 μM; FIGS. 4F, 4G. The procedure:
FIGS. 4A, 4B, 4C, 4D, 4E, 4F, 4G, 4H, and 4I. Expression of ERAB polypeptide in cultured cells: localization to the endoplasmic reticulum and change in distribution following addition of amyloid-beta peptide. FIG. 4A. Immunoblotting of ERAB polypeptide in human neuroblastoma SK-N-SH (FIG. 4A, lane 1) and HeLa (FIG. 4A, lane 2) cells. Cell extracts (50 μg protein/lane) were subjected to immunoblotting using anti-ERAB polypeptide IgG (3 μg/ml). FIGS. 4B, 4C, and 4D. […] Scale bar=25 μm. FIG. 4E. Subcellular fractionation of ERAB nucleic acid-transfected human neuroblastoma cells. Transfected cells (5×10^8) were pelletted and fractionated in a series of sucrose steps (38%, 30% and 20%) by ultracentrifugation (100,000 for 3 hrs). […] Neuroblastoma cells were incubated in buffer alone or in the presence of amyloid-beta peptide (1–42; 1 μM), and the distribution of ERAB polypeptide was determined by immunofluorescence with anti-ERAB polypeptide IgG. […]
These observations also posed an apparent paradox, for, how could amyloid-beta peptide, most of which is extracellular, interact with a polypeptide associated with endoplasmic reticulum? […] Second, it was determined that ERAB polypeptide became associated with amyloid-beta peptide, and that amyloid-beta peptide-induced effects on ERAB polypeptide were not likely mediated by an indirect mechanism. […]

Consider Arg-Gly-Asp-Ser (RGDS), for which the “Competition for ^125I-amyloid-beta peptide (1–40) binding to TrcHis-ERAB polypeptide” value (“Competition” for short) in assay [1] is “had no effect”.

Regarding “amyloid-beta peptide (1–20): synthetic amyloid-beta peptide (1–20)”, the “Competition” value in assay [1] is recorded as “blocked binding”.

As to “amyloid-beta peptide (1–42): exogenous amyloid-beta peptide (1–42)”, the “Change in cellular distribution of ERAB polypeptide” value in assay [2] is given as “marked change in the cellular localization”.

For the substance “amyloid-beta peptide (25–35): synthetic amyloid-beta peptide (25–35) (GSNKGAIIGLM)”, the “Competition” value in assay [1] is “had no effect”.
